Experimental data from article doi:10.1101/2021.07.30.454553 (bioRxiv, 2021).
Where two headings read alike, the source gives them in different places.

Key:
[1] = target: T1, full-length human kinesin-1 heavy chain (KIF5B) (human, UniProt P33176 1-963, LD555, LD655 or Alexa488 label (imaging assays)); assay: cell-based or functional assay
T1 sequence (looked up): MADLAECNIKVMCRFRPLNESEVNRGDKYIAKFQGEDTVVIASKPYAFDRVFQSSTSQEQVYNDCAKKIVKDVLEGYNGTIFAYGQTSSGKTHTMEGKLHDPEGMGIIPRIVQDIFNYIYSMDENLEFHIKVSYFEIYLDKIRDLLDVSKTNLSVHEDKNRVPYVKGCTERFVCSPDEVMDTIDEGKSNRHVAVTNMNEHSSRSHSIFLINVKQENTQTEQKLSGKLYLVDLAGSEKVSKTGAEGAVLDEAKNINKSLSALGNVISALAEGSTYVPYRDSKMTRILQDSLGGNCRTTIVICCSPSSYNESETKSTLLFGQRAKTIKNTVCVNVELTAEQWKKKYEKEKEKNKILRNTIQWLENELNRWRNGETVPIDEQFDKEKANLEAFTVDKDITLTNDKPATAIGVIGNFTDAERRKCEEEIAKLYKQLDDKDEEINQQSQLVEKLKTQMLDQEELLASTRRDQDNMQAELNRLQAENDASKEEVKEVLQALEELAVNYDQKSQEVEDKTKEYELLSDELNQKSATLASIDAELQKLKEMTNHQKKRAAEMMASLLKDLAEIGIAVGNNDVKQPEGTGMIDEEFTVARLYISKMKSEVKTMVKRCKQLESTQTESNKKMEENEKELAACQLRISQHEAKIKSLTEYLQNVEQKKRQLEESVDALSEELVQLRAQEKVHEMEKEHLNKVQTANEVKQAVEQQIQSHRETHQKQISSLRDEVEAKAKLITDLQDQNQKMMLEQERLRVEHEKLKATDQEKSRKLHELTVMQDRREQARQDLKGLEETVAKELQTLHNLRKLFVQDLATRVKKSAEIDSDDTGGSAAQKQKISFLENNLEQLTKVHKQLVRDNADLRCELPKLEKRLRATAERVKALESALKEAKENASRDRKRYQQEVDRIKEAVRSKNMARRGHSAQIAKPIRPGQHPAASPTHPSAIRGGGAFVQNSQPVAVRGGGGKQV

[2] = target: T1, full-length human kinesin-1 heavy chain …; assay: single-molecule colocalisation on microtubules
[3] = target: T1, full-length human kinesin-1 heavy chain …; assay: single-molecule colocalisation on microtubules; remark: listed apart in the source
KIF5B^Δ1-336 = target: T2, KIF5B^Δ1-336 (human, UniProt P33176 337-963); assay: single-molecule colocalisation on microtubules
T2 sequence (looked up): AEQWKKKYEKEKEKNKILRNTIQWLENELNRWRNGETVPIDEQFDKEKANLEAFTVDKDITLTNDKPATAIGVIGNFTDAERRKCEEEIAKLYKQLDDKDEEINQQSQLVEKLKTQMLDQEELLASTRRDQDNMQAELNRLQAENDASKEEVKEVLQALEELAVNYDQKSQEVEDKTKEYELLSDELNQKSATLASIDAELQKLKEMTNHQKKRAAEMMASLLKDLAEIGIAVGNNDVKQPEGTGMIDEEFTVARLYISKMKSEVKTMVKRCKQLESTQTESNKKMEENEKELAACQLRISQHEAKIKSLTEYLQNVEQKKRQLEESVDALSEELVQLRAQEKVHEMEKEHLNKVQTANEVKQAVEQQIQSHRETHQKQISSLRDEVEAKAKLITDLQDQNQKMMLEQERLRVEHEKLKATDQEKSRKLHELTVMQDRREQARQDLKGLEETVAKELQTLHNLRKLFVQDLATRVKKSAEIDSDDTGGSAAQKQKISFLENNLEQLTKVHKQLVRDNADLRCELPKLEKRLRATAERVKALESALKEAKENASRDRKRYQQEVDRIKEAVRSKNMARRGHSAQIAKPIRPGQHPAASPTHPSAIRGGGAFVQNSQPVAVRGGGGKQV

B1: TRAK1^1-360 (domain or fragment, human, UniProt Q9UPV9 1-360, looked up)
chain: MALVFQFGQPVRAQPLPGLCHGKLIRTNACDVCNSTDLPEVEIISLLEEQLPHYKLRADTIYGYDHDDWLHTPLISPDANIDLTTEQIEETLKYFLLCAERVGQMTKTYNDIDAVTRLLEEKERDLELAARIGQSLLKKNKTLTERNELLEEQVEHIREEVSQLRHELSMKDELLQFYTSAAEESEPESVCSTPLKRNESSSSVQNYFHLDSLQKKLKDLEEENVVLRSEASQLKTETITYEEKEQQLVNDCVKELRDANVQIASISEELAKKTEDAARQQEEITHLLSQIVDLQKKAKACAVENEELVQHLGAAKDAQRQLTAELRELEDKYAECMEMLHEAQEELKNLRNKTMPNTTS
modifications: LD555 or LD655 dye on the SNAP tag (imaging assays)
**Q.** Which results are given for B1?
**A.** landing rate of kinesin on MTs with TRAK1 1-360 against kinesin alone [1]: 1.5 fold; landing rate of kinesin/TRAK1 1-360 complexes, increase by 50 nM MAP7 [1]: > 7 fold

B2: full-length TRAK2^1-914 (natural protein, human, UniProt O60296 1-914, looked up)
chain: MSQSQNAIFTSPTGEENLMNSNHRDSESITDVCSNEDLPEVELVSLLEEQLPQYRLKVDTLFLYENQDWTQSPHQRQHASDALSPVLAEETFRYMILGTDRVEQMTKTYNDIDMVTHLLAERDRDLELAARIGQALLKRNHVLSEQNESLEEQLGQAFDQVNQLQHELCKKDELLRIVSIASEESETDSSCSTPLRFNESFSLSQGLLQLEMLQEKLKELEEENMALRSKACHIKTETVTYEEKEQQLVSDCVKELRETNAQMSRMTEELSGKSDELIRYQEELSSLLSQIVDLQHKLKEHVIEKEELKLHLQASKDAQRQLTMELHELQDRNMECLGMLHESQEEIKELRSRSGPTAHLYFSQSYGAFTGESLAAEIEGTMRKKLSLDEESSLFKQKAQQKRVFDTVRIANDTRGRSISFPALLPIPGSNRSSVIMTAKPFESGLQQTEDKSLLNQGSSSEEVAGSSQKMGQPGPSGDSDLATALHRLSLRRQNYLSEKQFFAEEWQRKIQVLADQKEGVSGCVTPTESLASLCTTQSEITDLSSASCLRGFMPEKLQIVKPLEGSQTLYHWQQLAQPNLGTILDPRPGVITKGFTQLPGDAIYHISDLEEDEEEGITFQVQQPLEVEEKLSTSKPVTGIFLPPITSAGGPVTVATANPGKCLSCTNSTFTFTTCRILHPSDITQVTPSSGFPSLSCGSSGSSSSNTAVNSPALSYRLSIGESITNRRDSTTTFSSTMSLAKLLQERGISAKVYHSPISENPLQPLPKSLAIPSTPPNSPSHSPCPSPLPFEPRVHLSENFLASRPAETFLQEMYGLRPSRNPPDVGQLKMNLVDRLKRLGIARVVKNPGAQENGRCQEAEIGPQKPDSAVYLNSGSSLLGGLRRNQSLPVIMGSFAAPVCTSSPKMGVLKED
modifications: LD655 dye on the SNAP tag (imaging assays)
**Q.** Does B2 bind [2]?
**A.** binds

B3: full-length TRAK1^1-953 (natural protein, human, UniProt Q9UPV9 1-953, looked up)
chain: MALVFQFGQPVRAQPLPGLCHGKLIRTNACDVCNSTDLPEVEIISLLEEQLPHYKLRADTIYGYDHDDWLHTPLISPDANIDLTTEQIEETLKYFLLCAERVGQMTKTYNDIDAVTRLLEEKERDLELAARIGQSLLKKNKTLTERNELLEEQVEHIREEVSQLRHELSMKDELLQFYTSAAEESEPESVCSTPLKRNESSSSVQNYFHLDSLQKKLKDLEEENVVLRSEASQLKTETITYEEKEQQLVNDCVKELRDANVQIASISEELAKKTEDAARQQEEITHLLSQIVDLQKKAKACAVENEELVQHLGAAKDAQRQLTAELRELEDKYAECMEMLHEAQEELKNLRNKTMPNTTSRRYHSLGLFPMDSLAAEIEGTMRKELQLEEAESPDITHQKRVFETVRNINQVVKQRSLTPSPMNIPGSNQSSAMNSLLSSCVSTPRSSFYGSDIGNVVLDNKTNSIILETEAADLGNDERSKKPGTPGTPGSHDLETALRRLSLRRENYLSERRFFEEEQERKLQELAEKGELRSGSLTPTESIMSLGTHSRFSEFTGFSGMSFSSRSYLPEKLQIVKPLEGSATLHHWQQLAQPHLGGILDPRPGVVTKGFRTLDVDLDEVYCLNDFEEDDTGDHISLPRLATSTPVQHPETSAHHPGKCMSQTNSTFTFTTCRILHPSDELTRVTPSLNSAPTPACGSTSHLKSTPVATPCTPRRLSLAESFTNTRESTTTMSTSLGLVWLLKERGISAAVYDPQSWDRAGRGSLLHSYTPKMAVIPSTPPNSPMQTPTSSPPSFEFKCTSPPYDNFLASKPASSILREVREKNVRSSESQTDVSVSNLNLVDKVRRFGVAKVVNSGRAHVPTLTEEQGPLLCGPPGPAPALVPRGLVPEGLPLRCPTVTSAIGGLQLNSGIRRNRSFPTMVGSSMQMKAPVTLTSGILMGAKLSKQTSLR
modifications: LD655 dye on the SNAP tag (imaging assays)
**Q.** Does B3 bind [2]?
**A.** binds

B4: TRAK1^1-400 (domain or fragment, human, UniProt Q9UPV9 1-400, looked up)
chain: MALVFQFGQPVRAQPLPGLCHGKLIRTNACDVCNSTDLPEVEIISLLEEQLPHYKLRADTIYGYDHDDWLHTPLISPDANIDLTTEQIEETLKYFLLCAERVGQMTKTYNDIDAVTRLLEEKERDLELAARIGQSLLKKNKTLTERNELLEEQVEHIREEVSQLRHELSMKDELLQFYTSAAEESEPESVCSTPLKRNESSSSVQNYFHLDSLQKKLKDLEEENVVLRSEASQLKTETITYEEKEQQLVNDCVKELRDANVQIASISEELAKKTEDAARQQEEITHLLSQIVDLQKKAKACAVENEELVQHLGAAKDAQRQLTAELRELEDKYAECMEMLHEAQEELKNLRNKTMPNTTSRRYHSLGLFPMDSLAAEIEGTMRKELQLEEAESPDITHQK
modifications: LD555 or LD655 dye on the SNAP tag
**Q.** Does B4 bind [3]?
**A.** binds

**Q.** Does B4 bind (KIF5B^Δ1-336)?
**A.** binds

B5: TRAK2^1-400 (domain or fragment, human, UniProt O60296 1-400, looked up)
chain: MSQSQNAIFTSPTGEENLMNSNHRDSESITDVCSNEDLPEVELVSLLEEQLPQYRLKVDTLFLYENQDWTQSPHQRQHASDALSPVLAEETFRYMILGTDRVEQMTKTYNDIDMVTHLLAERDRDLELAARIGQALLKRNHVLSEQNESLEEQLGQAFDQVNQLQHELCKKDELLRIVSIASEESETDSSCSTPLRFNESFSLSQGLLQLEMLQEKLKELEEENMALRSKACHIKTETVTYEEKEQQLVSDCVKELRETNAQMSRMTEELSGKSDELIRYQEELSSLLSQIVDLQHKLKEHVIEKEELKLHLQASKDAQRQLTMELHELQDRNMECLGMLHESQEEIKELRSRSGPTAHLYFSQSYGAFTGESLAAEIEGTMRKKLSLDEESSLFKQKAQ
modifications: LD555 or LD655 dye on the SNAP tag
**Q.** Does B5 bind [2]?
**A.** binds

B6: TRAK2^1-360 (domain or fragment, human, UniProt O60296 1-360, looked up)
chain: MSQSQNAIFTSPTGEENLMNSNHRDSESITDVCSNEDLPEVELVSLLEEQLPQYRLKVDTLFLYENQDWTQSPHQRQHASDALSPVLAEETFRYMILGTDRVEQMTKTYNDIDMVTHLLAERDRDLELAARIGQALLKRNHVLSEQNESLEEQLGQAFDQVNQLQHELCKKDELLRIVSIASEESETDSSCSTPLRFNESFSLSQGLLQLEMLQEKLKELEEENMALRSKACHIKTETVTYEEKEQQLVSDCVKELRETNAQMSRMTEELSGKSDELIRYQEELSSLLSQIVDLQHKLKEHVIEKEELKLHLQASKDAQRQLTMELHELQDRNMECLGMLHESQEEIKELRSRSGPTAHL
modifications: LD555 or LD655 dye on the SNAP tag (imaging assays)
**Q.** For B6, which “landing rate of kinesin/TRAK2 1-360 complexes, increase by 50 nM MAP7” value [1] is on record?
**A.** 2 fold
